# According to patent publication US20230002478A1:
# Key:
# Details in all cases: remark: other sources report otherwise
# [1] = target: biotinylated D614G SARS-CoV-2 spike trimer (SARS-CoV-2), P0DTC2; assay: AlphaLISA, inhibition of ACE2-muFc / biotinylated spike complex
# [2] = target: biotinylated SARS-CoV-2 spike RBD (Ancestral) (SARS-CoV-2), P0DTC2; assay: as above
# [3] = target: S1 RBD fused to mouse Fc, Beta variant (SARS-CoV-2), P0DTC2; assay: flow cytometry: inhibition of S1 RBD-mFc binding to Vero E6 cells (ACE2)
# [4] = target: SARS-CoV-2 S RBD (E484K) (SARS-CoV-2), P0DTC2; assay: SPR
# [5] = target: SARS-CoV-2 S RBD (N439K) (SARS-CoV-2), P0DTC2; assay: SPR
# [6] = target: SARS-CoV-2 S RBD (Y453F) (SARS-CoV-2), P0DTC2; assay: SPR
# [7] = target: SARS-CoV-2 S1-Fc (South Africa 178-08) (SARS-CoV-2), P0DTC2; assay: SPR
# [8] = target: SARS-CoV-2 S RBD (K417N) (SARS-CoV-2), P0DTC2; assay: SPR
# [9] = target: SARS-CoV-2 S Trimer (SARS-CoV-2), P0DTC2; assay: SPR
# [10] = target: SARS-CoV-2 S RBD (N501Y) (SARS-CoV-2), P0DTC2; assay: SPR
# [11] = target: SARS-CoV-2 S1 (D614G) (SARS-CoV-2), P0DTC2; assay: SPR
# [12] = target: biotinylated SARS-CoV-2 spike trimer, Delta (SARS-CoV-2), P0DTC2; assay: AlphaLISA, inhibition of ACE2-muFc / biotinylated spike complex
# [13] = target: S1 RBD-mFc (Acro SPD-05259) (SARS-CoV-2), P0DTC2; assay: flow cytometry: inhibition of S1 RBD-mFc binding to Vero E6 cells (ACE2)
binder,measurement,setting,value
antibody 202-03 (Fc fusion) EVQLVESGGGLVQPGGSLRLSCAASGFTFSPSWMGWFRQAPGKEREFVATINEYGGRNYADSVKGRFTISADNSKNTAYLQMNSLKPEDTAVYYCARVDRDFDYWGQGTLVTVSS,IC50,[1],4 nM
same,IC50,[2],8.3 nM
same,IC50,[3],0.587 nM
6-3 (Fc fusion) EVQLVESGGGLVQPGGSLRLSCAASGFTFSPSWMGWFRQAPGKEREFVATINEYGGRNYADSVKGRFTISADNSKNTAYLQMNSLKPEDTAVYYCARVDRDFDYWGQGTLVTVSS,Kd,[4],4.6 nM
same,Kd,[5],9.5 nM
same,Kd,[6],5.7 nM
same,Kd,[7],6.1 nM
same,Kd,[8],5.9 nM
same,Kd,[9],2.4 nM
same,Kd,[10],0.71 nM
same,Kd,[11],19 nM
antibody 339-031 (Fc fusion) EVQLVESGGGLVQPGGSLRLSCAASGSTFSINAMGWFRQAPGKEREFVAGITSSGGYTNYADSVKGRFTISADNSKNTAYLQMNSLKPEDTAVYYCAADGVPEYSDYASGPVWGQGTLVTVSS,IC50,[1],2.1 nM
same,IC50,[12],3 nM
same,IC50,[2],5.6 nM
same,IC50,[13],1.25 nM
same,IC50,[3],> 100 nM
